Data set [1] has as its target FGFR on NIH 3T3 fibroblasts. The experiment in a line: cell-based or functional assay.
Data set [2] deals with the molecule itself. Kind of data set: size-exclusion chromatography of peptide fragments.
Data set [3] concerns the molecule itself. Kind of data set: X-ray crystal structure (Δ1-10 form). From the text:
Crystals of Monofoil-4PΔ1-10 and Difoil-4PΔ1-10 grew in 2 M ammonium sulfate, 0.1 M Na citrate pH 5.5. Crystals were mounted in a stream of gaseous nitrogen at 100 K and diffraction data were collected at either the Southeast Regional Collaborative Access Team 22-BM beam line (λ=1.00 Å) at the Advanced Photon Source, Argonne National Laboratory, using a MarCCD 300 detector (Mar USA) or at the X25 beam line of the National Synchrotron Light Source at Brookhaven National Laboratory, using an ADSC Q315 CCD detector. Each dataset was collected from a single crystal except Monofoil-4PΔ1-10 and Difoil-4PΔ1-10. Datasets from two crystals of Monofoil-4PΔ1-10 were combined for better completion and redundancy.
Diffraction data were indexed, integrated, and scaled using the HKL2000 software package (Otwinowski Z (1993) Proceedings of the CCP4 Study Weekend: “Data Collection and Processing”, eds Sawyer L, Isaacs N, Bailey S (Science and Engineering Research Council, Daresbury Laboratory, England), pp 56-62 and Otwinowski Z and MinorW (1997) Meth Enzymol 276:307-326). Molecular replacement and model building utilized the PHENIX software package (Zwart P H et al. (2008) Methods Mol Biol 426:419-435), with 5% of the data in the reflection files set aside for Rfree calculations (Brunger A T (1992) Nature 355:472-475). […]

Turning to “human fibroblast growth factor-1 (FGF-1), 140 amino acid form (from UniProt P05230 16-155) (ligand)”, in data set [1], the mitogenic activity with 3T3 fibroblasts, EC50 was 58.4 ng/mL.
On to KPKLLYCSNGGHFLRILPDGTVDGTRDRSDQHIQLQLSAESVG (peptide, UniProt P05230 25-67, looked up) [peptide fragment of FGF-1, residues 10-52 (first trefoil-fold subdomain)], for which the binding result in data set [2] is given as “no binding”.
Turning to EVYIKSTETGQYLAMDTDGLLYGSQTPNEECLFLERLEENH (peptide, UniProt P05230 68-108, looked up) [peptide fragment of FGF-1, residues 53-93 (second trefoil-fold subdomain)], the binding result in data set [2] is reported as “no binding”.

B1: Difoil-4PΔ1-10 (other)
chain: HHHHHHPVLLKSTETGQYLRINPDGTVDGTRDRSDPHIQFQISPEGNGEVLLKSTETGQYLRINPDGTVDGTRDRSDPHIQFQISPEGNG
notes: Form used for crystallisation (PDB 3OGF); Three chains make two β-trefoil folds; also called Difoil-4P* (Δ1-10 mutant form)
With B1, the binding result in data set [3] is given as “binds”.
Take YNTYISKKHAEKNWFVGLKKNGSCKRGPRTHYGQKAILFLPLPVSSD (peptide, UniProt P05230 109-155, looked up) [peptide fragment of FGF-1, residues 94-140 (third trefoil-fold subdomain)]: the binding result in data set [2] is “no binding”.

These data come from patent publication US20150361149A1 (FLORIDA STATE UNIVERSITY RESEARCH FOUNDATION, published 2015).
